# Legend:
# [1] = target: Recombinant, his tagged full length human frataxin protein (Abcam ab95502) (human) (UniProt Q16595); experiment: Simoa sandwich 3-step; capture Ab-5
# [2] = target: Recombinant, his tagged full length human frataxin protein (Abcam ab95502) (human) (UniProt Q16595); experiment: Simoa sandwich 3-step; capture Ab-4
# [3] = target: Recombinant, his tagged full length human frataxin protein (Abcam ab95502) (human) (UniProt Q16595); experiment: Simoa sandwich 2-step; capture Ab-1
# [4] = target: Recombinant, his tagged full length human frataxin protein (Abcam ab95502) (human) (UniProt Q16595); experiment: Simoa sandwich 3-step; capture Ab-1
# [5] = target: Recombinant, his tagged full length human frataxin protein (Abcam ab95502) (human) (UniProt Q16595); experiment: Simoa sandwich 2-step; capture Ab-1; 150 pM SβG
# [6] = target: Recombinant, his tagged full length human frataxin protein (Abcam ab95502) (human) (UniProt Q16595); experiment: Simoa sandwich 3-step; capture Ab-2; frataxin 1000 pg/mL
# [7] = target: Recombinant, his tagged full length human frataxin protein (Abcam ab95502) (human) (UniProt Q16595); experiment: Simoa sandwich 3-step; capture Ab-4; frataxin 1000 pg/mL
# [8] = target: Recombinant, his tagged full length human frataxin protein (Abcam ab95502) (human) (UniProt Q16595); experiment: Simoa sandwich 3-step; capture Ab-2; frataxin 1000 pg/mL; remark: listed apart in the source
# [9] = target: Recombinant, his tagged full length human frataxin protein (Abcam ab95502) (human) (UniProt Q16595); experiment: Simoa sandwich 2-step; capture Ab-1; frataxin 2.06 pg/mL
# [10] = target: Recombinant, his tagged full length human frataxin protein (Abcam ab95502) (human) (UniProt Q16595); experiment: Simoa sandwich 3-step; capture Ab-1; frataxin 10000 pg/mL
# [11] = target: Recombinant, his tagged full length human frataxin protein (Abcam ab95502) (human) (UniProt Q16595); experiment: Simoa sandwich; capture Ab-1; no helper beads; frataxin 167 pg/mL
# [12] = target: Recombinant, his tagged full length human frataxin protein (Abcam ab95502) (human) (UniProt Q16595); experiment: Simoa sandwich; capture Ab-1; no helper beads; frataxin 500 pg/mL
# [13] = target: Recombinant, his tagged full length human frataxin protein (Abcam ab95502) (human) (UniProt Q16595); experiment: Simoa sandwich 2-step; capture Ab-1; 50 pM SβG; frataxin 500 pg/mL
# [14] = target: Recombinant, his tagged full length human frataxin protein (Abcam ab95502) (human) (UniProt Q16595); experiment: Simoa sandwich 2-step; capture Ab-1; 50 pM SβG; frataxin 55.6 pg/mL
# [15] = target: Recombinant, his tagged full length human frataxin protein (Abcam ab95502) (human) (UniProt Q16595); experiment: Simoa sandwich 2-step (120 min-5 min); capture Ab-1; frataxin 2000 pg/mL
# [16] = target: Recombinant, his tagged full length human frataxin protein (Abcam ab95502) (human) (UniProt Q16595); experiment: Simoa sandwich 2-step (120 min-5 min); capture Ab-1; frataxin 74.1 pg/mL
# [17] = target: Recombinant, his tagged full length human frataxin protein (Abcam ab95502) (human) (UniProt Q16595); experiment: Simoa sandwich 2-step (35 min-5 min); capture Ab-1; with helper beads; frataxin 167 pg/mL
# [18] = target: Recombinant, his tagged full length human frataxin protein (Abcam ab95502) (human) (UniProt Q16595); experiment: Simoa sandwich 2-step (35 min-5 min); capture Ab-1; with helper beads; frataxin 500 pg/mL
# [19] = target: Recombinant, his tagged full length human frataxin protein (Abcam ab95502) (human) (UniProt Q16595); experiment: Simoa sandwich 2-step (120 min-5 min); capture Ab-1; Diluent 1 + 5% NCS; frataxin 1.37 pg/mL
# [20] = target: Recombinant, his tagged full length human frataxin protein (Abcam ab95502) (human) (UniProt Q16595); experiment: Simoa sandwich 2-step (120 min-5 min); capture Ab-1; Diluent 1 + 5% NCS; frataxin 37.0 pg/mL
# [21] = target: Recombinant, his tagged full length human frataxin protein (Abcam ab95502) (human) (UniProt Q16595); experiment: Simoa sandwich 2-step (120 min-5 min); capture Ab-1; Diluent 1 + 5% NCS; frataxin 0.823 pg/mL
# [22] = target: Recombinant, his tagged full length human frataxin protein (Abcam ab95502) (human) (UniProt Q16595); experiment: Simoa sandwich 2-step (120 min-5 min); capture Ab-1; Diluent 1 + 10% NCS; frataxin 22.2 pg/mL
# [23] = target: Recombinant, his tagged full length human frataxin protein (Abcam ab95502) (human) (UniProt Q16595); experiment: Simoa sandwich 2-step (120 min-5 min); capture Ab-1; Diluent 1 + 10% NCS; frataxin 66.7 pg/mL
# [24] = target: Recombinant, his tagged full length human frataxin protein (Abcam ab95502) (human) (UniProt Q16595); experiment: Simoa sandwich 2-step (120 min-5 min); capture Ab-1; Diluent 1 + 10% NCS; frataxin 37.0 pg/mL
# [25] = target: Recombinant, his tagged full length human frataxin protein (Abcam ab95502) (human) (UniProt Q16595); experiment: Simoa sandwich 2-step (120 min-5 min); capture Ab-1; Diluent 1 + 10% NCS; frataxin 0.823 pg/mL
# Chain of UniProt Q16595 (Q16595 42-210): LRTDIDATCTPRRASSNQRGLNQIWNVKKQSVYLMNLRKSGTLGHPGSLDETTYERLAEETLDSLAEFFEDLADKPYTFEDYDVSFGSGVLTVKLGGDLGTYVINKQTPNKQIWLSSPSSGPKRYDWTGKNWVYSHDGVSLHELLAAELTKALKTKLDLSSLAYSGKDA
substance,measurement,setting,value
"Ab-3, mouse monoclonal [18A5DB1] to Frataxin (Abcam ab110328) (antibody)",LOD,[1],1.73 pg/mL
same,LOD,[2],1.09 pg/mL
same,LOD,[3],0.27 pg/mL
same,LOD,[4],0.59 pg/mL
same,LOD,[5],0.272 pg/mL
same,Ave AEB,[6],17.2 AEB
same,S/B,[6],388
same,Ave AEB,[7],25.2 AEB
same,S/B,[7],215
same,Ave AEB,[8],20.7 AEB
same,S/B,[8],330
same,Ave AEB,[9],0.318 AEB
same,S/B,[9],3.06
same,Ave AEB,[10],28.5 AEB
same,S/B,[10],576
same,AEB Rep1,[11],2.42 AEB
same,AEB Rep2,[11],2.1 AEB
same,Ave AEB,[11],2.26 AEB
same,S/B,[11],100
same,AEB Rep1,[12],7.94 AEB
same,AEB Rep2,[12],5.08 AEB
same,Ave AEB,[12],6.51 AEB
same,S/B,[12],288
same,Ave AEB,[13],13.7 AEB
same,S/B,[13],747
same,Ave AEB,[14],1.65 AEB
same,S/B,[14],90
same,AEB rep1,[15],9.8 AEB
same,AEB rep2,[15],10.1 AEB
same,AEB rep3,[15],9.8 AEB
same,Ave AEB,[15],9.9 AEB
same,S/B,[15],1200
same,AEB rep1,[16],0.357 AEB
same,AEB rep2,[16],0.356 AEB
same,AEB rep3,[16],0.336 AEB
same,Ave AEB,[16],0.35 AEB
same,S/B,[16],42.4
same,AEB Rep1,[17],9.19 AEB
same,AEB Rep2,[17],9.19 AEB
same,Ave AEB,[17],9.19 AEB
same,S/B,[17],377
same,AEB Rep1,[18],22.8 AEB
same,AEB Rep2,[18],22.7 AEB
same,Ave AEB,[18],22.8 AEB
same,S/B,[18],935
same,Ave AEB,[19],0.02 AEB
same,S/B,[19],1.82
same,Ave AEB,[20],0.341 AEB
same,S/B,[20],31.1
same,Ave AEB,[21],0.0324 AEB
same,S/B,[21],1.79
same,Ave AEB,[22],0.2 AEB
same,S/B,[22],11
same,Ave AEB,[23],0.602 AEB
same,S/B,[23],33.1
same,Ave AEB,[24],0.174 AEB
same,S/B,[24],16.2
same,Ave AEB,[25],0.0296 AEB
same,S/B,[25],1.63

# Reference: patent US20220308072A1
